± gives the standard deviation of the averaged measurements.
B1: library; a variant is named by its letters at N, in order (parent)
chain: GCUGUCACCGGUGUAUUACCCUAGUGGUCGACCGGUCUGAUGAGUCUNNNNNNAGACGAAACAGC

Experiments:
hypoxanthine [1] = variants of: B1; test: FACS-Seq fitted mean relative fluorescence mCherry/BFP without ligand (log10 relative fluorescence); ligand: hypoxanthine (xanthine aptamer); higher = higher reporter protein expression; settings: HEK293T, ligand present: no
Procedure, shortened: (§1)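 HEK293T libraries were made by lentiviral transduction with a ribozyme-switch mCherry reporter and an EF1α-BFP marker, enriched, and incubated with or without ligand for 48 h. Cells were sorted into 6 mCherry/BFP bins, and each bin's genomic DNA was PCR-amplified, barcoded and run on MiSeq. Fluorescence was derived by normal fitting of the bin counts. The fitted log10(mCherry/BFP) mean was scaled to five spiked-in control ribozymes.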

hypoxanthine [2] = variants of: B1; test: normalized RNA/DNA level with ligand (relative to sTRSVctl = 100) (log10 (% of sTRSVctl)); ligand: hypoxanthine (xanthine aptamer); higher = less ribozyme self-cleavage, higher mRNA level; settings: ligand concentration (+) RNA-Seq: 5 mM, HEK293T, reporter: mCherry (pCS4076), ligand present: yes
Procedure: (§2)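 Hammerhead (sTRSV) ribozyme switch libraries with a ligand aptamer grafted on stem I and a randomized N4-6 loop II, cloned into the 3' UTR of mCherry and transiently transfected into HEK293T cells; RNA-Seq 72 h post transfection with ligand added 1 h before transfection; RNA read count / plasmid DNA read count normalized to the non-cleaving sTRSVctl (x100), log10; sequences with >100 DNA reads. FACS-Seq: lentiviral library sorted into 6 bins after 48 h ligand, log-normal fit mean of mCherry/BFP scaled to controls. Printed sequences are partial switch sequences.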

hypoxanthine [3] = variants of: B1; test: normalized RNA/DNA level without ligand (relative to sTRSVctl = 100) (log10 (% of sTRSVctl)); ligand: hypoxanthine (xanthine aptamer); higher = less ribozyme self-cleavage, higher mRNA level; settings: HEK293T, reporter: mCherry (pCS4076), ligand present: no
Procedure: as §2

hypoxanthine [4] = variants of: B1; test: FACS-Seq fitted mean relative fluorescence mCherry/BFP with ligand (log10 relative fluorescence); ligand: hypoxanthine (xanthine aptamer); ligand concentration (+) FACS-Seq: 5 mM; higher = higher reporter protein expression; settings: HEK293T, ligand present: yes
Procedure, shortened: as §1

Variant	FACS-Seq fitted mean (log10) (hypoxanthine [1])	normalized RNA/DNA level with ligand (log10) (hypoxanthine [2])	normalized RNA/DNA level without ligand (log10) (hypoxanthine [3])	FACS-Seq fitted mean (log10) (hypoxanthine [4])
GAUGUG	0.2 ± 0.026	1.82 ± 0.019	1.31 ± 0.06	0.673 ± 0.077
GAUGUU	0.33 ± 0.0059	1.914 ± 0.017	1.841 ± 0.0059	0.447 ± 0.029
UAUUAA	0.486 ± 0.054	1.89 ± 0.0083	1.86 ± 0.022	0.724 ± 0.088
GAUUAC	0.748 ± 0.036	1.935 ± 0.0039	1.8 ± 0.049	0.749 ± 0.12
GAUUAA	0.276 ± 0.0053	1.949 ± 0.012	1.79 ± 0.044	0.381 ± 0.012
GAUGAG	0.0708 ± 0.0074	1.74 ± 0.028	1.3 ± 0.067	0.572 ± 0.047
GAUGAU	0.537 ± 0.094	1.91 ± 0.05	1.767 ± 0.015	0.495 ± 0.025
GAUGAC	0.654 ± 0.023	1.92 ± 0.02	1.72 ± 0.023	0.526 ± 0.07
GAUGAA	0.529 ± 0.025	1.886 ± 0.0083	1.711 ± 0.013	0.52 ± 0.051
UAUGAC	0.282 ± 0.084	1.95 ± 0.047	1.807 ± 0.01	0.457 ± 0.11
AAUGAG	0.0392 ± 0.012	1.81 ± 0.039	1.3 ± 0.022	0.472 ± 0.044
AAUGAC	0.585 ± 0.07	1.894 ± 0.0079	1.83 ± 0.049	0.5447 ± 0.0044
AAUGAU	0.38227 ± 0.00021	1.88 ± 0.041	1.683 ± 0.0061	0.571 ± 0.06
GAGGGC	-0.0173 ± 0.076	1.87 ± 0.056	1.5 ± 0.021	0.367 ± 0.041
GAGUUG	0.0221 ± 0.018	1.62 ± 0.1	1.14 ± 0.038	0.503 ± 0.022
GAGUUU	0.34 ± 0.066	1.92 ± 0.058	1.83 ± 0.026	0.348 ± 0.13
AAUAUA	0.619 ± 0.062	1.89 ± 0.024	1.78 ± 0.034	0.599 ± 0.07
AAUAUG	0.333 ± 0.056	1.84 ± 0.04	1.462 ± 0.014	0.53 ± 0.0062
